The values that follow come from US20230101046A1, “ANAPLASTIC LYMPHOMA KINASE CHIMERIC ANTIGEN RECEPTORS AND METHODS OF USE” (The Children's Medical Center Corporation, priority 2020, published 2023).

One test deals with Mouse-ALK (Mus musculus, UniProt P97793). In words: Mouse-ALK binding of ALK antibodies. The protocol:
(§1) Seven (7) ALK-specific antibodies (ALK Antibodies #1-#7) directed against the extracellular domain of human ALK receptor were evaluated for use in CAR-based immunotherapy.

Another test concerns the target ALK (Homo sapiens, UniProt Q9UM73). In words: ALK phosphorylation / ALK signaling activity of ALK antibodies. The test is classed as cell-based. As to the method: as §1

Residue numbers refer to the chain shown, from its start.

ALK, sequence (Q9UM73 19-1620): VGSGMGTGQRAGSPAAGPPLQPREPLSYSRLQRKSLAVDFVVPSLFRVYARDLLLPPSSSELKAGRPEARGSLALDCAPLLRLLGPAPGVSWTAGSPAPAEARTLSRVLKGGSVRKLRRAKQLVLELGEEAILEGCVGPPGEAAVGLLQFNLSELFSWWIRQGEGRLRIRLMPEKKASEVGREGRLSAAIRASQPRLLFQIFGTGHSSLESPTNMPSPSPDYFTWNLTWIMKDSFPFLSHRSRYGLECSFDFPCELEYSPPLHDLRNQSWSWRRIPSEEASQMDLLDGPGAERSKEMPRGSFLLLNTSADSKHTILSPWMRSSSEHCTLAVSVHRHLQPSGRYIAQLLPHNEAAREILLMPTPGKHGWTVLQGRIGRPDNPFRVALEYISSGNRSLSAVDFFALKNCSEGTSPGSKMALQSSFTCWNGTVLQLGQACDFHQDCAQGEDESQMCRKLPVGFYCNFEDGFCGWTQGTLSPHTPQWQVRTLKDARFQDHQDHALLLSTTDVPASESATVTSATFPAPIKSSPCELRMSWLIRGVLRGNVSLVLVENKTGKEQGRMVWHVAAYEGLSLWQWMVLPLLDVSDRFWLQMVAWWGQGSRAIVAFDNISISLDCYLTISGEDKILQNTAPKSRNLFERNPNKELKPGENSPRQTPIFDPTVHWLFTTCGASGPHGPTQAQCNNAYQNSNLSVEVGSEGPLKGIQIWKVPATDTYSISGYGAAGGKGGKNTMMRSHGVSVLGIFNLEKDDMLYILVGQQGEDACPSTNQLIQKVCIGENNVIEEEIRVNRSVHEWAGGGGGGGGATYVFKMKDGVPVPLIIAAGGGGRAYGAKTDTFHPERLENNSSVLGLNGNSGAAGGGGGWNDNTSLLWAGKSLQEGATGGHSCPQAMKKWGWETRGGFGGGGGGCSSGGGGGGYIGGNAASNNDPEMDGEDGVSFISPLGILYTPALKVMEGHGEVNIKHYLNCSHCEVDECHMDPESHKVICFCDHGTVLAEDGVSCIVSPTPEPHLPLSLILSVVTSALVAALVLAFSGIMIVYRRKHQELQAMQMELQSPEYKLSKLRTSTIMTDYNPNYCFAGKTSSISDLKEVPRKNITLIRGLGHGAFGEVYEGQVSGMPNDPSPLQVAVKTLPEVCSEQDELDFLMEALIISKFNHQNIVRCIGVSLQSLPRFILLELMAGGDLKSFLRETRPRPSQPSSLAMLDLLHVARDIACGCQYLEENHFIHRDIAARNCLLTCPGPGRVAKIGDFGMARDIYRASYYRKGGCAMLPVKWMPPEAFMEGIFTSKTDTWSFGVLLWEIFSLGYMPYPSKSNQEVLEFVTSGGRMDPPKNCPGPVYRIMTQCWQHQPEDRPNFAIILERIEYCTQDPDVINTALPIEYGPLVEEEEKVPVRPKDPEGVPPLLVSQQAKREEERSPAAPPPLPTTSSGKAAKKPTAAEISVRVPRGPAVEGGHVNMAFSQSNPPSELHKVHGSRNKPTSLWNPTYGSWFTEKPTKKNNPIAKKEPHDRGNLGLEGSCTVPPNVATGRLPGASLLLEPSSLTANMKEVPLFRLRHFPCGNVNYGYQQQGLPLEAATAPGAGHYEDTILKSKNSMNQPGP
Mouse-ALK, sequence (P97793 19-1621): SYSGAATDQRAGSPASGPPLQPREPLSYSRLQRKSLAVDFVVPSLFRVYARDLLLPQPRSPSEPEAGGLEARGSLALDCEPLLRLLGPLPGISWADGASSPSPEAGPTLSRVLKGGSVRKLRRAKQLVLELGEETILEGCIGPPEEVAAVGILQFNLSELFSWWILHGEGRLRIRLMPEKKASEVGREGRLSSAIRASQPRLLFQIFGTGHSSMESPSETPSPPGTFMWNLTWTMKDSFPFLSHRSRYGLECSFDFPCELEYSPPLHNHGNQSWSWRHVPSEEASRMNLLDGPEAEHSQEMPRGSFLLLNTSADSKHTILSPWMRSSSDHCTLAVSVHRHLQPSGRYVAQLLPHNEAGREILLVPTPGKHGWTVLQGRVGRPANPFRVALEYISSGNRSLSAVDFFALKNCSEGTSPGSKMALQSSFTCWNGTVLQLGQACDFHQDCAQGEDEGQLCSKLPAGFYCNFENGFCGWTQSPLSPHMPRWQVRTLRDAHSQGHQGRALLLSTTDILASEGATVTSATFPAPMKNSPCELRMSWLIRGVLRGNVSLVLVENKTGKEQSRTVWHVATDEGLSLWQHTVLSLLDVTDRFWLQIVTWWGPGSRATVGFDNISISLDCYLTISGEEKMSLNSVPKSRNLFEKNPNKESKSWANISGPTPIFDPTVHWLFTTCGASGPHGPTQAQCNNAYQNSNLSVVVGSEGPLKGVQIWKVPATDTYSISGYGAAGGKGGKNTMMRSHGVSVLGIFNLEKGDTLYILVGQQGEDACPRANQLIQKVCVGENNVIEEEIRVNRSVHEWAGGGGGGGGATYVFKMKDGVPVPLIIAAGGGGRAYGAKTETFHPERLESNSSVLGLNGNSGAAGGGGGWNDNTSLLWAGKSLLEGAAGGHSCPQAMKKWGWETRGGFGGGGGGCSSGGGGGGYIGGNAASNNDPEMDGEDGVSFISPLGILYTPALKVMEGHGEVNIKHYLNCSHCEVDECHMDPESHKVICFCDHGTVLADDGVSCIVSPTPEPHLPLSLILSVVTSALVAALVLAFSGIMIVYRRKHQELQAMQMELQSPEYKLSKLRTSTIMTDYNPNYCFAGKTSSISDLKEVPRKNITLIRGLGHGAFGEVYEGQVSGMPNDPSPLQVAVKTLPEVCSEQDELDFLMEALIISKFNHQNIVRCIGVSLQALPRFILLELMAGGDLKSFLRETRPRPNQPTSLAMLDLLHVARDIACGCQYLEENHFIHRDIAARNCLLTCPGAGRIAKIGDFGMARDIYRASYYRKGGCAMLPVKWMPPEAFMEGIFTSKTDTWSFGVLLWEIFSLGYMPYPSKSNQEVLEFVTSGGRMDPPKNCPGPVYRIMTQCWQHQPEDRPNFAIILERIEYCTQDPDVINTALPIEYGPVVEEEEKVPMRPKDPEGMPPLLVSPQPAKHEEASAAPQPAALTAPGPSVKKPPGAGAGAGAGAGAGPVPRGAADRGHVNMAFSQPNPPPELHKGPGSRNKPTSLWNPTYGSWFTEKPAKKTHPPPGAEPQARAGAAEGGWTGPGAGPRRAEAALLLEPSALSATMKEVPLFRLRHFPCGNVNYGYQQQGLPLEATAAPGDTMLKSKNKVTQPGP

B1: ALK Antibody 6: mouse hybridoma anti-ALK antibody against extracellular domain of human ALK receptor; VL/VH sequences in Tables 1 and 2 (antibody, V domains shown)
VH: DVKLVESGEGLVKPGGSLKLSCAASGFTFSSYAMSWVRQTPEKRLEWVTYISSGGDYIYYADTVKGRFTISRDNARNTLYLQMSSLKSEDTAMYYCTRERIWLRRFFDVWGTGTTVTVSS
VL: DIVMTQSQKFMSTSVGDRVSITCKASQNVGTAVAWYQLKPGQSPKLLIYSASNRFTGVPDRFTGSGSGTDFTLTISNMQSEDLADYFCQQYSSYPLTFGSGTKLEIKR
Consider B1, for which the “recognition of human and murine ALK” value with Mouse-ALK was “recognize both the human and murine ALK”. Also, the “activity on ALK signaling” value in the test with ALK is recorded as “inhibited ALK signaling”.

B2: ALK Antibody 7: mouse hybridoma anti-ALK antibody against extracellular domain of human ALK receptor; VL/VH sequences in Tables 1 and 2 (antibody, V domains shown)
VH: QVQLQQSGAELAKPGASVKLSCKASGYTFTSYWMHWVKQRPGQGLEWIGYINPSSGYTKYNQKFKDKATLTADKSSSTAYMQLSSLTFEDSAVYYCARDYYGSSSWFAYWGQGTLVTVSA
VL: DIVMTQSQKFMSTSVGDRVSVTCKASQNVGTNVAWYQQKPGHSPKALIYSASYRYSGVPDRFTGSGSGTDFTLTISNVQSEDLAEYFCQRYNSYPYMFTFGGGTKLEIKR
For B2, in the test with Mouse-ALK, the “recognition of human and murine ALK” value is “recognize both the human and murine ALK”. Further, the “activity on ALK signaling” value in the test with ALK is recorded as “agonistic of ALK signaling”.

B3: ALK Antibody 5: mouse hybridoma anti-ALK antibody against extracellular domain of human ALK receptor; VL/VH sequences in Tables 1 and 2 (antibody, V domains shown)
VH: B2 VH with N52K, F88Y
VL: B2 VL with K9R, H42Q, R90Q, F98Y
For B3, the “recognition of human and murine ALK” value in the test with Mouse-ALK was “recognize both the human and murine ALK”. In addition, the “activity on ALK signaling” value with ALK was “inhibited ALK signaling”.

B4: ALK Antibody 3: mouse hybridoma anti-ALK antibody against extracellular domain of human ALK receptor; VL/VH sequences in Tables 1 and 2 (antibody, V domains shown)
VH: B2 VH with S31N, F88Y
VL: B2 VL with K9R, H42Q, I75V, R90Q, F98Y
Turning to B4, the “activity on ALK signaling” value with ALK is reported as “inhibited ALK signaling”.

B5: ALK Antibody 1: mouse hybridoma anti-ALK antibody against extracellular domain of human ALK receptor; VL/VH sequences in Tables 1 and 2 (antibody, V domains shown)
VH: QVQLQQSGAELVKPGASVKISCKASGYAFSSYWMNWVKQRPGKGLEWIGQIYPGDGDTNYNGKFKGKATLTADKSSSTAYMQLSSLTSEDSAVYFCASYYYGSKAYWGQGTLVTVSA
VL: DIQMTQSPASLAASVGETVTITCRASENIYYSLAWYQQKQGKSPQLLIYNANSLEDGVPSRFSGSGSGTQYSMKINSMQPEDTATYFCKQAYDVPFTFGSGTKLEIKR
On to B5, for which, in the test with ALK, the “activity on ALK signaling” value is on record as “no effect on ALK signaling”.
